No end group written: not given here. *: point of attachment. FITC = O=C1OC2(c3ccc(O)cc3Oc3cc(O)ccc32)c2ccc(NC(=S)*)cc21
Columns and labels:
[1] = molecular target: T1, human 14-3-3ζ, full length, 6His-Linker-h14-3-3 (human, UniProt P63104 1-245); experiment: FP
T1 chain: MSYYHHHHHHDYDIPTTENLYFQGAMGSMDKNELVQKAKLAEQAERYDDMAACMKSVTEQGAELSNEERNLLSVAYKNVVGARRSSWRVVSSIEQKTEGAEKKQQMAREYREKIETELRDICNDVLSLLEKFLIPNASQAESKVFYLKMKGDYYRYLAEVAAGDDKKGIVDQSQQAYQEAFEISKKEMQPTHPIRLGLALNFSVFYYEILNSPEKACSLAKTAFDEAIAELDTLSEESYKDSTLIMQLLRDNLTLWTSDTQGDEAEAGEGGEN

[2] = molecular target: T1, human 14-3-3ζ, full length, …; experiment: SPR

B1: GR_pS83-pT524, FITC-labelled 31-mer doubly phosphorylated peptide (peptide)
peptide: {FITC}-DLSKAVSLSMGLYGGGGGKTIVPATLPQLTP
modifications: also: phosphoserine at S83 and phosphothreonine at T524, places in chain not given here
With B1 the Kd [1] was 900 nM.

B2: GR_pT524-pS617, 31-mer doubly phosphorylated peptide used for SPR and crystallography (peptide)
peptide: KTIVPATLPQLTPGGGGGRSYRQSSANLLCF
modifications: also: phosphothreonine at T524 and phosphoserine at S617, places in chain not given here
B2 showed a Kd [2] of 30 nM.

— paper PMC8080530, “Glucocorticoid receptor Thr524 phosphorylation by MINK1 induces interactions with 14-3-3 protein regulators” (The Journal of Biological Chemistry, 2021)
